{"source": "patent US20040009569A1", "about": "“Kinase crystal structures and materials and methods for kinase activation” (priority 2001, published 2004)", "molecules": {"B1": {"name": "PKB HM-D (PKB hydrophobic motif peptide with aspartate at position 474) (peptide)", "peptide": "GLLELDQRTHFPQFDYSASIRE"}}, "key": {"[1]": {"target": "T1, pΔPH-PKB-ΔC (PKBβ residues 146 to 460, phosphorylated in vitro on Thr-309) (Homo sapiens, UniProt P31751)", "T1 construct": "pΔPH-PKB-ΔC (residues 146 to 460, phosphorylated in vitro on Thr-309); 6xHis (N, cleaved yes); made in house; host or cells: Sf9 insect cells / baculovirus (pFastBacHTa)", "T1 sequence (P31751 146-460, stated change not applied)": "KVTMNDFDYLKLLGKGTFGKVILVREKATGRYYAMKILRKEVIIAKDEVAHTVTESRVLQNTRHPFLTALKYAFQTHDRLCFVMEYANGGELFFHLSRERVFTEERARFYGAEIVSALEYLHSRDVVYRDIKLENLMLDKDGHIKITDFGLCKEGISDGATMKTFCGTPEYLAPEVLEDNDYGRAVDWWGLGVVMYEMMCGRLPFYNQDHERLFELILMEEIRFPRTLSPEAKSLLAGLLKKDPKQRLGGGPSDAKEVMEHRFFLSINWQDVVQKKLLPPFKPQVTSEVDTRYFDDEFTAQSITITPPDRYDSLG", "assay": "Protein kinase B assay with Crosstide as substrate, peptide stimulation of pΔPH-PKB-ΔC", "type": "biochemical", "settings": "for fold lower affinity than PIFtide, from estimated EC50: PKB not phosphorylated on Ser 474; for stimulation of pΔPH-PKB-ΔC activity (in words): PIFtide peptides at 210-250 μM, PKB HM-peptide up to 1.2 mM", "description": "To test the model that Ser 474 phosphorylation promotes an interaction between the hydrophobic motif and the induced hydrophobic groove of the N-terminal lobe, thereby causing an allosteric activation of the kinase, the ability of peptides modelled on the hydrophobic motif of PKB to activate the enzyme via an intermolecular association with the N-terminal lobe was assessed.\n(§1) PKB was assayed essentially as described by Andjelkovic et al. (1999) with 30 μM Crosstide (GRPRTSSAEG) as substrate except the protein kinase A inhibitor peptide was not added to the reactions. For peptide stimulation experiments the various peptides were dissolved in water and added to the kinase assay mix prior to adding the PKB protein. Peptides were synthesized by Franz Fischer at the FMI or purchased from Neosystem, Strasburg, France.\n(§2) All experiments were performed in either duplicate or triplicate."}, "[2]": {"target": "T2, ΔPH-PKB phosphorylated on both Thr 309 and Ser 474 (Homo sapiens, UniProt P31751)", "T2 construct": "Purification of ΔPH-PKBβ-ΔC (Residues 146-460) and ΔPH-PKBβ (Residues 146-481); 6xHis (N, cleaved yes); made in house; host or cells: Sf9 insect cells / baculovirus (pFastBacHTa)", "T2 sequence (P31751 146-481, stated change not applied)": "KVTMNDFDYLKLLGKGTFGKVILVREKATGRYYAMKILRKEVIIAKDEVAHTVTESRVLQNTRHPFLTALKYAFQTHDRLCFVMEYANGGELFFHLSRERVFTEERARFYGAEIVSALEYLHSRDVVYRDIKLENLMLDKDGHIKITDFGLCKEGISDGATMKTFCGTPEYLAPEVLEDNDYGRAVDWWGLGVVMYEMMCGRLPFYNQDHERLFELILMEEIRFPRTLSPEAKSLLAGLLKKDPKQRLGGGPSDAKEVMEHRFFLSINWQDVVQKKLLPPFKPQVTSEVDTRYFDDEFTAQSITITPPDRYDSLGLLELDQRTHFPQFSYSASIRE", "assay": "Protein kinase B assay with Crosstide, peptide stimulation of doubly phosphorylated ΔPH-PKB", "type": "biochemical", "description": "as §1, §2"}, "[3]": {"target": "T3, His tagged pΔPH-PKB-ΔC wild type (Homo sapiens, UniProt P31751)", "T3 construct": "pΔPH-PKB-ΔC (residues 146 to 460, phosphorylated in vitro on Thr-309); made in house; host or cells: HEK cells (transient expression), purified on Ni-NTA agarose", "T3 sequence (P31751 146-460, stated change not applied)": "as the sequence (P31751 146-460, stated change not applied) above", "assay": "PIFtide responsiveness of His tagged wild type pΔPH-PKB-ΔC expressed in HEK cells", "type": "biochemical", "settings": "incomplete Thr 309 phosphorylation", "description": "To test the notion that a hydrophobic groove is induced in PKB to engage the hydrophobic motif, and activate the kinase, a series of His tagged pΔPH-PKB-ΔC hydrophobic groove mutants were prepared and their responsiveness to PIFtide assessed. PKB mutants were transiently expressed in HEK cells, phosphorylated in vitro with PDK1, and purified using Ni-NTA agarose. […] Wild type PKB prepared using this procedure was stimulated ˜5-fold by 130 μM PIFtide (FIG. 6B).\nas §1"}, "pΔPH-PKB-ΔC": {"target": "T4, pΔPH-PKB-ΔC (Homo sapiens, UniProt P31751)", "T4 construct": "pΔPH-PKB-ΔC (residues 146 to 460, phosphorylated in vitro on Thr-309); 6xHis (N, cleaved yes); made in house; host or cells: Sf9 insect cells / baculovirus (pFastBacHTa)", "T4 sequence (P31751 146-460, stated change not applied)": "as above", "assay": "Isothermal titration calorimetry, peptide binding to pΔPH-PKB-ΔC", "description": "(C) Isothermal titration calorimetry measurements of the binding of PIFtide to pΔPH-PKB-ΔC (left) and ΔPH-PKB-ΔC (right). Upper panel, raw data of the titration of PIFtide into pΔPH-PKB-ΔC. Lower panel, integrated heats of injections, corrected for the heat of dilution, with the solid line corresponding to the best fit of the data using the MicroCal software.\nUsing isothermal titration calorimetry, the affinity between PIFtide and both pΔPH-PKB-ΔC and ΔPH-PKB-ΔC was determined (FIG. 5C). […] The observed large decrease in entropy is […] typical of protein-peptide interactions, for example SH2-domain-phosphotyrosine peptide complexes (Ladbury et al., 1996), and is consistent with an ordering of both the protein, presumably the αB- and αC-helices of the N-lobe, and peptide on complex formation."}, "[4]": {"target": "His tagged pΔPH-PKB-ΔC hydrophobic groove mutant V194A-V198A (human) (UniProt P31751)", "sequence (P31751 146-460 V194A/V198A limits assumed)": "as the sequence (P31751 146-460, stated change not applied) above, with V49A, V53A counted along it", "assay": "cell-based or functional assay"}, "[5]": {"target": "His tagged pΔPH-PKB-ΔC, wild type, transiently expressed in HEK cells (human) (UniProt P31751)", "sequence (P31751 146-460, stated change not applied)": "as the sequence (P31751 146-460, stated change not applied) above", "assay": "cell-based or functional assay"}, "[6]": {"target": "pΔPH-PKBβ-ΔC (human PKBβ residues 146 to 460, phosphorylated in vitro on Thr-309) (human) (UniProt P31751)", "sequence (P31751 146-460, stated change not applied)": "as above", "assay": "cell-based or functional assay"}, "[7]": {"target": "ΔPH-PKB (human PKBβ residues 146-481) phosphorylated on Thr 309 (human) (UniProt P31751)", "assay": "cell-based or functional assay"}, "[8]": {"target": "ΔPH-PKBβ-ΔC (human PKBβ residues 146 to 460, not phosphorylated on Thr-309) (human) (UniProt P31751)", "sequence (P31751 146-460, stated change not applied)": "as above", "assay": "isothermal titration calorimetry"}, "[9]": {"target": "pΔPH-PKBβ-ΔC (human PKBβ residues 146 to 460, phosphorylated in vitro on Thr-309) (human) (UniProt P31751)", "assay": "cell-based or functional assay", "remark": "listed apart in the source"}, "[10]": {"settings": "assuming activation at saturating peptide similar to that induced by PIFtide, read-out: EC50 estimated from FIG. 5A"}}, "note": "Entries after “also recorded” stand apart in the source; their conditions may differ. Like-named read-outs stand apart in the source and are kept apart here. Square brackets hold non-standard residues; d marks the D form. Peptide text beside a SMILES is read from it. pS = N[C@@H](COP(=O)(O)O)C(=O)O"}
{"molecule": "CC[C@H](C)[C@H](NC(=O)[C@H](CO)NC(=O)[C@H](C)NC(=O)[C@H](CO)NC(=O)[C@H](Cc1ccc(O)cc1)NC(=O)[C@H](COP(=O)(O)O)NC(=O)[C@H](Cc1ccccc1)NC(=O)[C@H](CCC(N)=O)NC(=O)[C@@H]1CCCN1C(=O)[C@H](Cc1ccccc1)NC(=O)[C@H](Cc1c[nH]cn1)NC(=O)[C@@H](NC(=O)[C@H](CCCNC(=N)N)NC(=O)[C@H](CCC(N)=O)NC(=O)[C@H](CC(=O)O)NC(=O)[C@H](CC(C)C)NC(=O)[C@H](CCC(=O)O)NC(=O)[C@H](CC(C)C)NC(=O)[C@H](CC(C)C)NC(=O)CN)[C@@H](C)O)C(=O)N[C@@H](CCCNC(=N)N)C(=O)N[C@@H](CCC(=O)O)C(=O)O", "note": "[HM-P, GLLELDQRTHFPQFpSYSASIRB] (H-GLLELDQRTHFPQF[pS]YSASIRE-OH; N-terminus and C-terminus assumed)", "values": [{"measurement": "fold lower affinity than PIFtide, from estimated EC50", "setting": "[1]", "result": "~1000", "unit": "fold"}, {"measurement": "EC50", "setting": "[1]; [10]", "result": 2.3, "unit": "mM"}, {"measurement": "activation of ΔPH-PKB phosphorylated on both Thr 309 and Ser 474 (in words)", "setting": "[2]", "result": "did not further activate"}, {"measurement": "activation of wild type PKB by PKB HM-peptide (in words)", "setting": "[3]", "result": "did not elicit measurable activation"}]}
{"molecule": "CC[C@H](C)[C@H](NC(=O)[C@H](Cc1ccc(O)cc1)NC(=O)[C@H](C)NC(=O)[C@H](Cc1ccccc1)NC(=O)[C@H](CC(=O)O)NC(=O)[C@H](CCCNC(=N)N)NC(=O)[C@H](Cc1ccccc1)NC(=O)[C@H](CCSC)NC(=O)[C@H](CCC(=O)O)NC(=O)[C@H](CCC(N)=O)NC(=O)[C@H](CCC(=O)O)NC(=O)[C@H](CCC(=O)O)NC(=O)[C@H](CCC(=O)O)NC(=O)[C@H](CO)NC(=O)[C@H](CC(C)C)NC(=O)[C@@H](NC(=O)[C@H](CCCNC(=N)N)NC(=O)[C@@H]1CCCN1C(=O)[C@H](CCC(=O)O)NC(=O)[C@@H](N)CCCNC(=N)N)[C@@H](C)CC)C(=O)N[C@@H](C)C(=O)N[C@@H](CC(=O)O)C(=O)N[C@@H](Cc1c[nH]c2ccccc12)C(=O)O", "note": "[PIFtide(D->A)] (H-REPRILSEEEQEMFRDFAYIADW-OH; N-terminus and C-terminus assumed)", "values": [{"measurement": "fold lower affinity than PIFtide, from EC50", "setting": "[1]", "result": 10, "unit": "fold"}, {"measurement": "EC50", "setting": "[1]; Crosstide substrate, value of PIFtide(D->A) called estimated, read-out: EC50 for activation of pΔPH-PKB-ΔC", "result": 0.03, "unit": "mM"}, {"measurement": "maximal activation of pΔPH-PKB-ΔC compared with wild type PIFtide (in words)", "setting": "[1]; saturating / high concentrations of the mutant peptide", "result": "identical to that of the wild type peptide; also recorded: could activate PKB maximally"}, {"measurement": "fold lower affinity relative to PIFtide, ITC", "setting": "pΔPH-PKB-ΔC", "result": "approximately 25 fold"}]}
{"molecule": "CC[C@H](C)[C@H](NC(=O)[C@H](CO)NC(=O)[C@H](C)NC(=O)[C@H](CO)NC(=O)[C@H](Cc1ccc(O)cc1)NC(=O)[C@H](CC(=O)O)NC(=O)[C@H](Cc1ccccc1)NC(=O)[C@H](CCC(N)=O)NC(=O)[C@@H]1CCCN1C(=O)[C@H](Cc1ccccc1)NC(=O)[C@H](Cc1c[nH]cn1)NC(=O)[C@@H](NC(=O)[C@H](CCCNC(=N)N)NC(=O)[C@H](CCC(N)=O)NC(=O)[C@H](CC(=O)O)NC(=O)[C@H](CC(C)C)NC(=O)[C@H](CCC(=O)O)NC(=O)[C@H](CC(C)C)NC(=O)[C@H](CC(C)C)NC(=O)CN)[C@@H](C)O)C(=O)N[C@@H](CCCNC(=N)N)C(=O)N[C@@H](CCC(=O)O)C(=O)O", "note": "[PKB HM-D] (H-GLLELDQRTHFPQFDYSASIRE-OH; N-terminus and C-terminus assumed)", "values": [{"measurement": "fold lower affinity than PIFtide, from estimated EC50", "setting": "[1]", "result": "~1000", "unit": "fold"}, {"measurement": "EC50", "setting": "[1]; [10]", "result": 3.6, "unit": "mM"}]}
{"molecule": "GLLELDQRTHFPQFSYSASIRE [PKB HM-S]", "values": [{"measurement": "stimulation of pΔPH-PKB-ΔC activity (in words)", "setting": "[1]; Crosstide substrate", "result": "did not stimulate"}]}
{"molecule": "MFRDFDYIADW [PIFtide1, 11-residue peptide encompassing the six-residue hydrophobic motif of PIFtide]", "values": [{"measurement": "stimulation of pΔPH-PKB-ΔC activity (in words)", "setting": "[1]; Crosstide substrate", "result": "essentially recapitulates the activation"}]}
{"molecule": "PIFtide (synthetic peptide encompassing the PRK2 hydrophobic motif)", "values": [{"measurement": "PIFtide activation relative to wild type (% of wild type)", "setting": "[4]", "result": 25}, {"measurement": "stimulation of PKB kinase activity by 130 µM PIFtide", "setting": "[5]", "result": 5, "unit": "fold"}, {"measurement": "EC50 of activation of kinase activity", "setting": "[6]", "result": 0.003, "unit": "mM"}, {"measurement": "activation of PKB kinase activity", "setting": "[6]", "result": 15, "unit": "fold"}, {"measurement": "peptide concentration giving maximum and saturable activation", "setting": "[6]", "result": 20, "unit": "µM"}, {"measurement": "specific activity of pΔPH-PKB-ΔC maximally activated by PIFtide", "setting": "[6]", "result": 350, "unit": "nmol/min/mg"}, {"measurement": "activation of PKB kinase activity", "setting": "[7]", "result": 5, "unit": "fold"}, {"measurement": "TΔS", "setting": "[8]", "result": -9.2, "unit": "kcal/mol"}, {"measurement": "ΔH", "setting": "[8]", "result": -16, "unit": "kcal/mol"}]}
{"molecule": "PKB HM-P (peptide modelled on the phosphorylated hydrophobic motif of PKBβ, residues 460-481)", "values": [{"measurement": "estimated EC50 of activation of kinase activity", "setting": "[6]", "result": 2.3, "unit": "mM"}, {"measurement": "fold lower affinity than PIFtide, from the estimated EC50 of activation", "setting": "[6]", "result": 1000, "unit": "fold"}, {"measurement": "stimulation of PKB kinase activity towards Crosstide", "setting": "[6]", "result": 4, "unit": "fold"}]}
{"molecule": "B1", "values": [{"measurement": "estimated EC50 of activation of kinase activity", "setting": "[9]", "result": 3.6, "unit": "mM"}, {"measurement": "fold lower affinity than PIFtide, from the estimated EC50 of activation", "setting": "[9]", "result": 1000, "unit": "fold"}, {"measurement": "stimulation of PKB kinase activity towards Crosstide", "setting": "[9]", "result": 3, "unit": "fold"}]}
